Usually EC50 stands for the concentration that produces a half-maximal response. A lower EC50 goes with higher potency in that assay. As usually defined, the Kd is the free concentration of one partner at which half of the binding sites on the other are occupied at equilibrium, for simple one-to-one binding. Low values mean higher affinity, high ones lower affinity. For orientation: koff means the rate constant with which the complex falls apart. High values mean a short-lived complex, low ones a long-lived complex. One may read the kon as the rate constant with which the complex forms.

Eleven molecules from patent US20210277110A1 (Janssen / Centocor, published 2021) can be followed below.

The chains are these.
B1: PD1B177 (antibody, V domains shown)
VH: QVQLVQSGAEVKKPGSSVKVSCKASGGTFSDYVISWVRQAPGQGLEWMGGIIPIYGTANYAQKFQGRVTITADESTSTAYMELSSLRSEDTAVYYCARGTLDRTGHLDYWGQGTLVTVSS
VL: EIVLTQSPATLSLSPGERATLSCRASQSVSSYLAWYQQKPGQAPRLLIYDASNRATGIPARFSGSGSGTDFTLTISSLEPEDFAVYYCQQRSNWPLTFGQGTKVEIK
notes: Tested as IgG2sigma; also called PD1H164/PH9L3
B2: PD1B187 (antibody, V domains shown)
VH: QVQLVQSGAEVKKPGSSVKVSCKASGGTFSSYAISWVRQAPGQGLEWMGGIIPIFGTANYAQKFQGRVTITADESTSTAYMELSSLRSEDTAVYYCARPGLAAAYDTGSLDYWGQGTLVTVSS
VL: B1 VL with S30R, S92N, N93Y
notes: Tested as IgG2sigma; also called PD1H3/PD1L148
B3: PD1B114 (antibody, human IgG2, kappa, V domains shown)
VH: B2 VH with S109N
VL: EIVLTQSPATLSLSPGERATLSCRASQSVSSYLAWYQQKPGQAPRLLIYDASNRATGIPARFSGSGSGTDFTLTISSLEPEDFAVYYCQQRSNWPLTFGQGTKVEIKR
notes: IgG2sigma/kappa; also called PD1H24/PH9L3
B4: PD1B184 (antibody, human IgG2, kappa, V domains shown)
VH: B2 VH
VL: B3 VL with S30R, S31N, Y49H, S92N, N93Y
notes: IgG2sigma/kappa; VH 43, VL 50; also called PD1H3/PD1L128
B5: PD1B160 (antibody, human IgG2, kappa, V domains shown)
VH: B2 VH with G56D, S109N
VL: B3 VL with S30D, Y49K, N53D, S92G
notes: IgG2sigma/kappa; VH 42, VL 51; also called PD1H131/PD1L101
B6: PD1B183 (antibody, human IgG2, kappa, V domains shown)
VH: B2 VH
VL: B3 VL with Y49K, S92G, N93Y
notes: IgG2sigma/kappa; VH 43, VL 54; also called PD1H3/PD1L109
B7: PD1B192 (antibody, human IgG2, kappa, V domains shown)
VH: B2 VH
VL: B3 VL with S30D, Y49H, S92N, N93Y
notes: IgG2sigma/kappa; VH 43, VL 57; also called PD1H3/PD1L133
B8: PD1B185 (antibody, human IgG2, kappa, V domains shown)
VH: B2 VH
VL: B3 VL with S30R, S31N, N53D, S92W
notes: IgG2sigma/kappa; VH 43, VL 55; also called PD1H3/PD1L132
B9: PD1B198 (antibody, V domains shown)
VH: B1 VH with S30K, D31S, S35H, Y55F, T100Y, L101V, D102R, R103A, H106M
VL: B1 VL with Y49E, N53S, S92A, N93E
notes: also called PD1H163/PD1L187
B10: PD1B197 (antibody, V domains shown)
VH: B1 VH with S30K, D31S, S35H, Y55F, T100Y, L101V, D102R, R103A, H106M
VL: B1 VL with S31N, S92A, N93Y
notes: also called PD1H163/PD1L185
B11: PD1B194 (antibody, V domains shown)
VH: B2 VH with G56D
VL: B1 VL with S30R, N53Y, S92D, N93Y
notes: also called PD1H170/PD1L71

Positions count from the first letter of the chain named.

The target in the first assay is T1, Extracellular domain of human PD1 (huPD1-ECD) (human, UniProt Q15116 25-169, biotinylated in the ligand inhibition assay (sites not given)).
T1 construct: Expressed with a hexahistidine tag or as Fc fusion; also called biotinylated PD-1
T1 sequence (Q15116 25-169 limits assumed): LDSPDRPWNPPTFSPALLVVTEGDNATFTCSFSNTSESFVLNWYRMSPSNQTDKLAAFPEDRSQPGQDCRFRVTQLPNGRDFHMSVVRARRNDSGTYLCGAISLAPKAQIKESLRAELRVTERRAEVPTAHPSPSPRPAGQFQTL
Put plainly: MSD ligand inhibition, competitor coated cynoPDL1-ECD.
Take B1: the “percentage ligand not blocked at 1 µg/ml” value was found to be 7% and the “percentage ligand not blocked at 10 µg/ml” value came to 8%.

Regarding B2, the “percentage ligand not blocked at 1 µg/ml” value was 7% and the “percentage ligand not blocked at 10 µg/ml” value stood at 5%.

Regarding B3, the “percentage ligand not blocked at 1 µg/ml” value is 8% and the “percentage ligand not blocked at 10 µg/ml” value stood at 13%.

Regarding B4, the “percentage ligand not blocked at 1 µg/ml” value was determined as 4% and the “percentage ligand not blocked at 10 µg/ml” value was 4%.

As for B5, the “percentage ligand not blocked at 1 µg/ml” value amounted to 4% and the “percentage ligand not blocked at 10 µg/ml” value came out at 3%.

Take B6: the “percentage ligand not blocked at 1 µg/ml” value came to 5% and the “percentage ligand not blocked at 10 µg/ml” value was found to be 5%.

B7: the “percentage ligand not blocked at 1 µg/ml” value was 5% and the “percentage ligand not blocked at 10 µg/ml” value came to 5%.

Turning to B8, the “percentage ligand not blocked at 1 µg/ml” value was 8% and the “percentage ligand not blocked at 10 µg/ml” value was 5%.

The target in a further assay is T2, Full length human PD1 (huPD1) on cells (human, UniProt Q15116 25-288).
T2 construct: on T cells of human donors in the MLR and CMV assays (functional); also called PD-1 on Jurkat cells
T2 sequence (Q15116 25-288 limits assumed): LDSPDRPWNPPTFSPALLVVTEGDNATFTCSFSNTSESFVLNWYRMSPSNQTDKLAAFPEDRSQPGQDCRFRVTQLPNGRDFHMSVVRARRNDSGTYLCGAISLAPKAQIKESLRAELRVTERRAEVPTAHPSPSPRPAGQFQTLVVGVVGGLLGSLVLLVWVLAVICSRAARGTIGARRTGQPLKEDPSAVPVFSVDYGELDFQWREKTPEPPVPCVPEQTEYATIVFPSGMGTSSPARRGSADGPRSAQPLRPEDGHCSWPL
Put plainly: flow cytometry, PHA-stimulated Jurkat cells.
Molecule B1 showed an EC50 of 0.05 mg/L.

With B2, the EC50 stood at 0.09 mg/L.

B3 came in with a 50% effective concentration (EC50) of 0.47 mg/L.

As for B4, the EC50 was 0.08 mg/L.

The molecule B5 yielded a 50% effective concentration (EC50) of 0.08 mg/L.

As to B6, the EC50 turned out to be 0.08 mg/L.

Turning to B7, the 50% effective concentration (EC50) turned out to be 0.06 mg/L.

In turn, B8 registered a 50% effective concentration (EC50) of 0.09 mg/L.

The next assay concerns the target T3, Extracellular domain of cyno PD1 (cPD1-ECD) (Macaca fascicularis (cynomolgus)).
T3 construct: Expressed with a hexahistidine tag or as Fc fusion; also called cynoPD1-ECD; cynoPD-1-ECD
T3 chain: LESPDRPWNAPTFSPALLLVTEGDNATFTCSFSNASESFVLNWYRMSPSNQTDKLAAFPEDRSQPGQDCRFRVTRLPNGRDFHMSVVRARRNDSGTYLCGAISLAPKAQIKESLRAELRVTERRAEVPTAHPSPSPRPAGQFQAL
Put plainly: SPR ProteOn, captured mAb, cynoPD1-ECD analyte.
With B9, the dissociation constant Kd came to 0.0112 µM, the koff was 0.00416 s⁻¹ and the kon was determined as 372000 M⁻¹ s⁻¹.

Take B10: the dissociation constant Kd stood at 0.0046 µM, the off-rate constant (koff) was found to be 0.00126 s⁻¹ and the kon stood at 275000 M⁻¹ s⁻¹.

The molecule B11 returned a dissociation constant (Kd) of 0.0006 µM, a koff of 0.000193 s⁻¹ and a kon of 322000 M⁻¹ s⁻¹.

The target of the next assay is T3, Extracellular domain of cyno PD1 …. Put plainly: SPR ProteOn, cynoPD1-ECD; RANGE high replicate.
Experimental: (§1) Affinity measurements using Surface Plasmon Resonance (SPR) were performed using a ProteOn XPR36 system. A biosensor surface was prepared by coupling a mixture of anti-IgG Fc modified alginate polymer layer surface of a GLC chip using the manufacturer instructions for amine-coupling chemistry. […] The collected data were processed and fitted to a Langmuir 1:1 binding model. The result for each mAb was reported in the format of kₒₙ (On-rate), koff (Off-rate) and KD (equilibrium dissociation constant).
(§2) STDEV were calculated for 3 or more replicates generated for human and cyno proteins. If less than 3 replicates were calculated, RANGE was indicated. RANGE is defined as the low and high values for the replicates tested. For samples in the Table 10 or Table 11 without value indicated in RANGE or STDEV, only one experiment was performed.
For the molecule B1, the affinity, expressed as Kd, was 0.0069 µM.

Take B2: the Kd stood at 0.0084 µM.

Consider B4, for which the Kd was 0.0141 µM.

Regarding B5, the Kd was 0.0053 µM, the off-rate (koff) amounted to 0.00168 s⁻¹ and the kon was 317000 M⁻¹ s⁻¹.

B6: the equilibrium dissociation constant (Kd) stood at 0.0288 µM.

B7 showed an equilibrium dissociation constant (Kd) of 0.018 µM.

B8 returned an equilibrium dissociation constant (Kd) of 0.0341 µM and a koff of 0.00955 s⁻¹.

For the next assay the target is unchanged. The experiment in a line: SPR ProteOn, cynoPD1-ECD; RANGE low replicate.
Experimental: as §1, §2
Take B1: the affinity, expressed as Kd, was 0.0061 µM; the dissociation rate constant (koff) turned out to be 0.00184 s⁻¹; the on-rate constant (kon) was 280000 M⁻¹ s⁻¹.

Molecule B2 registered a Kd of 0.0035 µM, a koff of 0.00128 s⁻¹ and an on-rate (kon) of 220000 M⁻¹ s⁻¹.

In turn, B4 registered a Kd of 0.0095 µM, a koff of 0.00255 s⁻¹ and a kon of 208000 M⁻¹ s⁻¹.

In turn, B5 displayed a dissociation constant Kd of 0.0051 µM, a koff of 0.00163 s⁻¹ and a kon of 316000 M⁻¹ s⁻¹.

For B6, the Kd is 0.0239 µM, the off-rate constant (koff) was 0.00801 s⁻¹ and the on-rate (kon) is 304000 M⁻¹ s⁻¹.

With B7, the Kd came to 0.015 µM, the koff turned out to be 0.00486 s⁻¹ and the kon came to 290000 M⁻¹ s⁻¹.

Molecule B8 yielded an equilibrium dissociation constant (Kd) of 0.0275 µM, a koff of 0.00938 s⁻¹ and a kon of 280000 M⁻¹ s⁻¹.

In another assay the target is T1, Extracellular domain of human PD1 …. Put plainly: SPR ProteOn, captured mAb, huPD1-ECD analyte.
Experimental: as §1
STDEV were calculated for 3 or more replicates generated for human and cyno proteins. If less than 3 replicates were calculated, RANGE is indicated. RANGE is defined as the low and high values for the replicates tested. For samples without RANGE or STDEV, only one experiment was performed
B9 had an equilibrium dissociation constant (Kd) of 0.0104 µM, an off-rate constant (koff) of 0.00934 s⁻¹ and an on-rate constant (kon) of 895000 M⁻¹ s⁻¹.

The molecule B10 displayed an equilibrium dissociation constant (Kd) of 0.0049 µM, an off-rate constant (koff) of 0.00324 s⁻¹ and a kon of 658000 M⁻¹ s⁻¹.

The molecule B11 registered an equilibrium dissociation constant (Kd) of 0.00107 µM, an off-rate constant (koff) of 0.00096 s⁻¹ and a kon of 897000 M⁻¹ s⁻¹.

Another assay has the same target. The experiment in a line: SPR ProteOn, captured mAb, huPD1-ECD analyte. This is another data set of the same source.
Experimental: as §1, §2
As for B1, the affinity, expressed as Kd, was 0.005 µM; the koff was determined as 0.00257 s⁻¹; the on-rate (kon) came out at 515000 M⁻¹ s⁻¹.

In turn, B2 gave a Kd of 0.0052 µM, a koff of 0.00278 s⁻¹ and a kon of 535000 M⁻¹ s⁻¹.

On to B3, for which the dissociation constant Kd was found to be 0.0541 µM, the koff was found to be 0.0279 s⁻¹ and the kon is 517000 M⁻¹ s⁻¹.

Regarding B4, the affinity, expressed as Kd, was 0.0114 µM; the koff turned out to be 0.00509 s⁻¹; the kon came to 445000 M⁻¹ s⁻¹.

As to B5, the Kd came out at 0.00687 µM, the off-rate (koff) turned out to be 0.00371 s⁻¹ and the kon came to 540000 M⁻¹ s⁻¹.

Molecule B6 registered a Kd of 0.016 µM, a koff of 0.00844 s⁻¹ and a kon of 527000 M⁻¹ s⁻¹.

The molecule B7 returned an off-rate (koff) of 0.0117 s⁻¹ and a kon of 541000 M⁻¹ s⁻¹.

Take B8: the affinity, expressed as Kd, was 0.0131 µM; the off-rate constant (koff) amounted to 0.00765 s⁻¹; the on-rate constant (kon) came to 585000 M⁻¹ s⁻¹.

For the next assay, the target named is T3, Extracellular domain of cyno PD1 …. The experiment in a line: SPR ProteOn, cynoPD1-ECD; RANGE high replicate; RANGE high replicate.
Experimental: as §1, §2
The molecule B1 displayed a koff of 0.00193 s⁻¹ and an association rate constant (kon) of 304000 M⁻¹ s⁻¹.

As for B2, the off-rate (koff) was 0.00185 s⁻¹ and the kon is 370000 M⁻¹ s⁻¹.

For B4, the koff worked out at 0.00292 s⁻¹ and the kon was found to be 268000 M⁻¹ s⁻¹.

For the molecule B6, the off-rate (koff) stood at 0.00876 s⁻¹ and the kon was found to be 337000 M⁻¹ s⁻¹.

Consider B7, for which the koff is 0.00522 s⁻¹ and the kon came to 324000 M⁻¹ s⁻¹.

Turning to B8, the kon was determined as 343000 M⁻¹ s⁻¹.

For the next assay the target is unchanged. The experiment in a line: SPR ProteOn, captured mAb, cynoPD1-ECD analyte. The source holds these as a separate data set.
Experimental: as §1, §2
B1 had a dissociation constant (Kd) of 0.00647 µM, a koff of 0.00189 s⁻¹ and a kon of 292000 M⁻¹ s⁻¹.

Take B2: the Kd is 0.00532 µM, the koff is 0.00157 s⁻¹ and the kon amounted to 294000 M⁻¹ s⁻¹.

In turn, B3 showed a dissociation constant (Kd) of 0.0815 µM, a koff of 0.0239 s⁻¹ and a kon of 294000 M⁻¹ s⁻¹.

Regarding B4, the Kd amounted to 0.0115 µM, the koff stood at 0.00274 s⁻¹ and the kon is 238000 M⁻¹ s⁻¹.

In turn, B5 displayed a Kd of 0.00523 µM, an off-rate constant (koff) of 0.00166 s⁻¹ and a kon of 317000 M⁻¹ s⁻¹.

B6 had a dissociation constant (Kd) of 0.0263 µM, a koff of 0.00839 s⁻¹ and an on-rate (kon) of 320000 M⁻¹ s⁻¹.

Molecule B7 came in with a Kd of 0.0164 µM, a koff of 0.00504 s⁻¹ and an on-rate constant (kon) of 307000 M⁻¹ s⁻¹.

Consider B8, for which the affinity, expressed as Kd, was 0.0305 µM; the off-rate (koff) came out at 0.00947 s⁻¹; the association rate constant (kon) came to 311000 M⁻¹ s⁻¹.
